This note sets out measurements from US20220267751.

The target in data set [1] is T1, native plasminogen glycoform I (purified in-house from human plasma), P00747.
T1 chain: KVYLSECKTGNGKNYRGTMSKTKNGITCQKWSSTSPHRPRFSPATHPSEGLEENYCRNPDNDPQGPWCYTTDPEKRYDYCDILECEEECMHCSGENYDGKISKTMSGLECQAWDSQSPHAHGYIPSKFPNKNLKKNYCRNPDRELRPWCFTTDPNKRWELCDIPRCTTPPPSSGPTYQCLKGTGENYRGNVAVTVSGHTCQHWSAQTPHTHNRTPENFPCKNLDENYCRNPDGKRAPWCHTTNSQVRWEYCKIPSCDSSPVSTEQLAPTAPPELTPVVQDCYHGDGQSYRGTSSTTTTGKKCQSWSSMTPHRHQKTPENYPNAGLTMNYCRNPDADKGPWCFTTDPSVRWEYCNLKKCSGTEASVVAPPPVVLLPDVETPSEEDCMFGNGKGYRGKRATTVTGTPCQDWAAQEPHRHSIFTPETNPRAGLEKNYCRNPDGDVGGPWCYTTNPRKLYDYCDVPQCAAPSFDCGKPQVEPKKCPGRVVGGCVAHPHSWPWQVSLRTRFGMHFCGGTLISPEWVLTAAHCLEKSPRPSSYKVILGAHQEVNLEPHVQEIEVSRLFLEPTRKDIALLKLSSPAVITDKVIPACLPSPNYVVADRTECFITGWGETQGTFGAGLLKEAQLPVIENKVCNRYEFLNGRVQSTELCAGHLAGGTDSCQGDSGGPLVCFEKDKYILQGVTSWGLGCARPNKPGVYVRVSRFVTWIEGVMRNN

The target of data set [2] is T2, native plasminogen glycoform II (purified in-house from human plasma), P00747.
T2 chain: T1 chain

For a further data set, the target named is T3, recombinant plasminogen.
T3 chain: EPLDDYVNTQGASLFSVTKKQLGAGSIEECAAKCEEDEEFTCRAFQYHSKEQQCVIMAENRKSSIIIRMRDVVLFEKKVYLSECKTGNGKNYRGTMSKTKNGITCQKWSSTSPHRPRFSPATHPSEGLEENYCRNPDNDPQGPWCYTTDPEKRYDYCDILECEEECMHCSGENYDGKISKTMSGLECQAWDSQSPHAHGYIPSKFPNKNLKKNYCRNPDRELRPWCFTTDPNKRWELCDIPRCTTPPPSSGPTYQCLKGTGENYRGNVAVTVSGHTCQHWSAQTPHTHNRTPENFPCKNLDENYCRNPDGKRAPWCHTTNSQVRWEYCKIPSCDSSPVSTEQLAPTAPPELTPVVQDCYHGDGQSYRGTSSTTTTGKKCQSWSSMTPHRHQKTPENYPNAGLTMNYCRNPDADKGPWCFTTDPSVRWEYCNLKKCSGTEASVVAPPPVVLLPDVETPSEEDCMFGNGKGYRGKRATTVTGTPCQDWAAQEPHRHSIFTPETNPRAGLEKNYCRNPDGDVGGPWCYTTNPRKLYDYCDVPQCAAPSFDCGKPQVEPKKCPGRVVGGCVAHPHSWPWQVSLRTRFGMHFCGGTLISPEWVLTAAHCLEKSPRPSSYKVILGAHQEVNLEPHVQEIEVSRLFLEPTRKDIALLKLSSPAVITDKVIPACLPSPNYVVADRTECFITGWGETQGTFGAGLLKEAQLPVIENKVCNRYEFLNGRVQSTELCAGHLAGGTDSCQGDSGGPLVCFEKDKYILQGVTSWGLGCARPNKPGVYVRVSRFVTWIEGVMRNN

B1: tissue-type plasminogen activator (protein)
chain: SYQVICRDEKTQMIYQQHQSWLRPVLRSNRVEYCWCNSGRAQCHSVPVKSCSEPRCFNGGTCQQALYFSDFVCQCPEGFAGKCCEIDTRATCYEDQGISYRGTWSTAESGAECTNWNSSALAQKPYSGRRPDAIRLGLGNHNYCRNPDRDSKPWCYVFKAGKYSSEFCSTPACSEGNSDCYFGNGSAYRGTHSLTESGASCLPWNSMILIGKVYTAQNPSAQALGLGKHNYCRNPDGDAKPWCHVLKNRRLTWEYCDVPSCSTCGLRQYSQPQFRIKGGLFADIASHPWQAAIFAKHRRSPGERFLCGGILISSCWILSAAHCFQERFPPHHLTVILGRTYRVVPGEEEQKFEVEKYIVHKEFDDDTYDNDIALLQLKSDSSRCAQESSVVRTVCLPPADLQLPDWTECELSGYGKHEALSPFYSERLKEAHVRLYPSSRCTSQHLLNRTVTDNMLCAGDTRSGGPQANLHDACQGDSGGPLVCLNDGRMTLVGIISWGLGCGQKDVPGVYTKVTNYLDWIRDNMRP
B1: in data set [1], the Km (nM) of Plg activation by tPA worked out at 163 nM and the Vmax (nM/s) of Plg activation by tPA came out at 3.06 nM/s. For the same protein, in data set [2], the Km (nM) of Plg activation by tPA was 146 nM and the Vmax (nM/s) of Plg activation by tPA amounted to 1.67 nM/s. For the same protein, in the data set with recombinant plasminogen, the Km (nM) of Plg activation by tPA is 139 nM; the Vmax (nM/s) of Plg activation by tPA came to 3.47 nM/s; the “cleavage to plasmin, SDS-PAGE under reducing conditions” value is recorded as “tPA-cleaved recombinant plasmin (rPlm) resulting from the cleavage of rPlg by tPA”.
